From paper PMC2745220 (Cell, 2008) come the findings set out here.

For orientation: Kd means the constant that tells how readily two partners part at equilibrium.

For data set [1], the target named is T1, ParB, purified (C. crescentus, UniProt P0CAV8 1-304).
T1 sequence (looked up): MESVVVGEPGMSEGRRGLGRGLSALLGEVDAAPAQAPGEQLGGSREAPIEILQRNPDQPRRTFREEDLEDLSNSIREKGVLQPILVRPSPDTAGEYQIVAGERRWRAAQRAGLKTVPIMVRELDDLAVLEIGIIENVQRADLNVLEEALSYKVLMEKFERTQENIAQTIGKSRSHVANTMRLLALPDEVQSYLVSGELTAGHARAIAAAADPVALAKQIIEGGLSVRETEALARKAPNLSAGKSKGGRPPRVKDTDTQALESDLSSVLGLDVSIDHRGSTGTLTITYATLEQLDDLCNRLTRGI
In words: SPR. (In general: SPR reads the build-up and loss of mass on a sensor chip optically.)

Data set [2] deals with the molecule itself. Nature of the data set: native gel or EMSA. On the technique in general: Mobility shift assays separate free from complexed probe on a gel.
Data set [3] concerns the molecule itself. Nature of the data set: SEC. For orientation: In gel filtration, larger molecules generally elute earlier.

B1: PopZ (Polar Organizing Protein Z), purified, 6-His tag cleaved (natural protein, C. crescentus, UniProt Q9A8N4 1-177, looked up)
chain: MSDQSQEPTMEEILASIRRIISEDDAPAEPAAEAAPPPPPEPEPEPVSFDDEVLELTDPIAPEPELPPLETVGDIDVYSPPEPESEPAYTPPPAAPVFDRDEVAEQLVGVSAASAAASAFGSLSSALLMPKDGRTLEDVVRELLRPLLKEWLDQNLPRIVETKVEEEVQRISRGRGA
For B1, in data set [1], binding was put at a Kd of 20 nM. Moreover, the binding result in data set [2] is given as “binds”.

B2: 6His-PopZ (His-tagged PopZ) (natural protein, C. crescentus, UniProt Q9A8N4 1-177, looked up)
chain: MSDQSQEPTMEEILASIRRIISEDDAPAEPAAEAAPPPPPEPEPEPVSFDDEVLELTDPIAPEPELPPLETVGDIDVYSPPEPESEPAYTPPPAAPVFDRDEVAEQLVGVSAASAAASAFGSLSSALLMPKDGRTLEDVVRELLRPLLKEWLDQNLPRIVETKVEEEVQRISRGRGA
B2: in data set [3], the binding result is listed as “binds”.
